The chains are these.
B1: OR4K15 (parent)
chain: GUUAACGGUCAUAGGCCAUGGAAACUAGGAGCACCAUUUCGCUGCCAGUGAAGAAAUGAACAAAGAAAAUCUGGGCCAGGCAGGCAUCAAAAGAAAUAGUCUUGCGCUCAACCAGAAAGUCUGUAAUCAUUUUAAGGGUA

The variants in this series derive from B1. As to the kind of experiment: self-cleavage, relative activity (ratio to wild type); higher = more cleavage; in vitro, sequencing; the parent is a self-cleaving ribozyme.
Take GUUAACGGUCAUAGGCCAUGGGAACUAGGAGCACCAUUUCGCUGCCAGUGAAGAAAUGAACAAGGAAAAUCUGGGCCAGGCAGGCAUCAAAAGAAAUAGUCUUGCGCUCAACCAGAAAGUCUGUAAUCAUUUUAAGGGUA: the self-cleavage is 1.31. Consider GUUAACGGUCAUAGGCCAUGGAAACUAGGAGCACCAUUUCGCUGCAAGUGAAGAAAUGAACAAAGAAAAUCUGGGCCAGGCAGGCAUCAAAAGAAAUAGUCUUGCGCUCAACCAGAAAGUCUGUAAUCAUUUUGAGGGUA, for which the self-cleavage was 1.14. With GUUAACGGUCAUAGGCCAUGGAAACUAGGAGCACCAUUUCGCUGCCAGUGAAGAAAUGAACAAGGAAAAUCUGGGCCAGGCAGGCAUCAAAAGAAAUAGUUUUGCGCUCAACCAGAAAGUCUGUAAUCAUUUUAAGGGUA the figure was 0.42. Take GUUAACGGUCAUAGGCCAUGGAAACUAGGAGCACCAUUUCGCUGCCAGUGAAGAAAUGAACAAAGAAAAUCUGGGCCAGGCAGGCAUCGAAAGAAAUAGUCUUGCGCUCAACCAGAAAGUCUGUAAUCAUUUUGAGGGUA: the self-cleavage was 1.64. The result for GUUAACGGUCAUAGGCCAUGGAAACUAGGAGCACCAUUUCGCUGCCAGUGUAGAAAUGAACAAAGAAAAUCUGGGCCAGGCAGGCAUCAAAAGAAACAGUCUUGCGCUCAACCAGAAAGUCUGUAAUCAUUUUAAGGGUA reads 1.37; that for GUUAACGGACAUAGGCCAUGGAAACUAGGAGCACCAUUUCGCUGCCAGUGAAGAAAUGAACAGAGAAAAUCUGGGCCAGGCAGGCAUCAAAAGAAAUAGUCUUGCGCUCAACCAGAAAGUCUGUAAUCAUUUUAAGGGUA, 1.23; that for GUUAACGGUCAUAGGCCAUGGAAUCUAGGAGCACCAUUUCGCUGCCAGUGAAGAAAUGAACAAAGAAAAUCUGGGCCAGGCAGGCAUCAAAAGAAAUAGUCUCGCGCUCAACCAGAAAGUCUGUAAUCAUUUUAAGGGUA, 0.25. The result for GUUAACGGUCAUAGGCCAUGGAAACUAGGAGCACCAUUUCGCUGCCAGUGAAGUAAUGAACAAAGAAAAUCCGGGCCAGGCAGGCAUCAAAAGAAAUAGUCUUGCGCUCAACCAGAAAGUCUGUAAUCAUUUUAAGGGUA reads 0.09; that for GUUAACGGUCAUAGGCCAUGGAAACUAGGAGCACCAUUUCGCUGCCAGUGAAGAAAUGAACAAAGAAAAUCUGGGCCAGGCAGGCAUCAAAAGAAAUAGUCUUGCGCUCAACCAGAAAGUCUGUAAUCAAUUUAAGGGUG, 1.02.

For the variant GUUAACGGUCAUAGGCCAUGGAAACUAGGAGCACCAUUUCGCUGCCAGUGAAGAAAUGAACAAAGAAAAUCUGGGCCAGUCAGGCAUCAAAAGAAAUAGCCUUGCGCUCAACCAGAAAGUCUGUAAUCAUUUUAAGGGUA, the self-cleavage turned out to be 0.16. With GUUAACGGUCAUAGGCCAUGGAAACUAGGAGCACCAUUUCGCUGCCAGUGAAGAAAUGAACAAAGAAAAUCUGGGCCAGGCAGGCAUCAAAGGAAAUAGUCAUGCGCUCAACCAGAAAGUCUGUAAUCAUUUUAAGGGUA, the self-cleavage was 0.61. With GUUAACGGUCAUAGGCCACGGAAACUAGGAGCACCAUUUCGCUGCCAGUGAAGAAAUGAACAAAGAAAAUCUGGGCCAGGCAGGCAUCAAAAGAAAUAGUCUUGCGCUUAACCAGAAAGUCUGUAAUCAUUUUAAGGGUA the figure was 0.63; with GUUAACGGUCAUAGGCCAUGGAAACAAGGAGCACCAUUUCGCUGCCAGUGAAGAAGUGAACAAAGAAAAUCUGGGCCAGGCAGGCAUCAAAAGAAAUAGUCUUGCGCUCAACCAGAAAGUCUGUAAUCAUUUUAAGGGUA, 1.7. The result for GUUAACGGUCAUAGGCCAUGGAAACUGGGAGCACCAUUUCGCUGCCAGUGAAGAAAUGAACAAAGAAAAUCUGGGCCUGGCAGGCAUCAAAAGAAAUAGUCUUGCGCUCAACCAGAAAGUCUGUAAUCAUUUUAAGGGUA reads 0.34. With GUUAACGGUCAUAGGCCAUGGAAACUAGGAGCACCAUUUCGCUGCCUGUGAAGAAAUGACCAAAGAAAAUCUGGGCCAGGCAGGCAUCAAAAGAAAUAGUCUUGCGCUCAACCAGAAAGUCUGUAAUCAUUUUAAGGGUA the figure was 0.14. In the case of GUUAACGGUCACAGGCCAUGGAAACUAGGAGCACCAUUUCGCUGCCAGUGAAGAAAUGAACAAAGAAAAUCUGGGCCAGGCAGGCAUCAAAAGAAAUGGUCUUGCGCUCAACCAGAAAGUCUGUAAUCAUUUUAAGGGUA, the self-cleavage is 0.74. Consider GUUAGCGGUCAUAGGCCAUGGAAACUAGGAGCACCAUUUCGCUGCCAGUGAAGAAAUGAACAAAGAAAAUCUGGGCCAGGCAGGCAUCAAAAGAAAUAGUCUUGCGCUCAACCAGAAAGCCUGUAAUCAUUUUAAGGGUA, for which the self-cleavage came to 0.86. Take GUUAACGGUCAUAGGCCCUGGAAACUAGGAGCACCAUUUCGCUGCCAGUGAAGAAACGAACAAAGAAAAUCUGGGCCAGGCAGGCAUCAAAAGAAAUAGUCUUGCGCUCAACCAGAAAGUCUGUAAUCAUUUUAAGGGUA: the self-cleavage worked out at 0. With GUUAACGGUCAUAGGCCAUGGAAACUAGGAGCACCAUUUCGCUGCCAGUGAAGAAAUGAACAAAGAAAAUCUGGGCCAGGCAGGCAUCAAAAGAAAUAGUCUUGCGCUCAACCAGGAAGUCUAUAAUCAUUUUAAGGGUA the figure was 0.19; with GUUAACGGUCAUAGGCCAUGGAAACUAGGAGCACCAUUUCGCUGCCAGUGAAGAAAUGAACAAAGAAAAUCUGGGCCAGGCAGGCAUCAAAAGGAGUAGUCUUGCGCUCAACCAGAAAGUCUGUAAUCAUUUUAAGGGUA, 1.35; with GUUAACGGUCAUAGGCCAUGGAAACUAGGAGCACCAUUUCGCUGCCAGUGAAGAAAUGAACAAAGAAAAUCUGGGCCAGGCAGGCAGCAAAAGAAAUAGUCUUGCGCUCAGCCAGAAAGUCUGUAAUCAUUUUAAGGGUA, 0.02. As to GUUAACGGUCAUAGGCCAUGGAAACUGGGAGCACCAUUUCGCUGCCAGUGAAGAAAUGAACAAAGAAAAUCUGGGCCAGGCAGGCAUCAAAAGAAAUAGUCUUGCGCUCAACCAGAUAGUCUGUAAUCAUUUUAAGGGUA, the self-cleavage was determined as 0.53. The result for GUUAACGGUCAUAGGCCAUGGAAACUAGGAGCACCAUUUCGCUGCCAGUGAAGAAAUGAACAAAGAAAAUCUGGGCCGGGCAGGCAUCAAAAGAAAUAGUCUUGCGCUCAACCAGAAAGCCUGUAAUCAUUUUAAGGGUA reads 0.19; that for GUUAACGGUCAUAGGCCAUGGAAACUAGGGGCACCAUUUCGCUGCCAGUGAAGAAAUGAACAAAGAAAAUCUGGGCCAGGCAGGCAUCAAAAGAAAUAGUCUUGCGCUCAACCAGAAAGUCUGUAAUUAUUUUAAGGGUA, 1.78; that for GUUAACGGUCAUAGGCCAUAGAAACUAGGAGCACCAUUUCGCUGCCAGUGAAGAAAUGAACAAAGAAGAUCUGGGCCAGGCAGGCAUCAAAAGAAAUAGUCUUGCGCUCAACCAGAAAGUCUGUAAUCAUUUUAAGGGUA, 1.37.

Turning to GUUAACGGUCAUAGGCCAUGGAAACUAGGAGCACCAUUUCGCUGCCAGUGAAGUAAUGAACAAAGAAAAUCUGGGCCAGGCAGGCAUCAAGAGAAAUAGUCUUGCGCUCAACCAGAAAGUCUGUAAUCAUUUUAAGGGUA, the self-cleavage was found to be 0.86.

Consider GUUAACGGUCAUAGGCCAUGGAAACUAGGAGCACCAUUUCGCUGCCAGCGAAGAAAUGAACAAAGAAAAUCUGGGCCAGGCAGGCAUCAAAAGAAAUAGUCUUGCGCUCAACCAGAAAGUCUGUAAUCAUUUUAAGGGCA, for which the self-cleavage stood at 1.71.

On to GUUAACGGUCAUAGGCCAUGGAAACUAGGAGCACCAUUUCGCUGCCAGUGAAGAAAUGAACAAAGAUAAUCUGGGCCAGGCAGGCAUCAAAAGAAAUAGUCUUGCGCUCAACCAGAAGGUCUGUAAUCAUUUUAAGGGUA, for which the self-cleavage turned out to be 1.4. With GCUAACGGUCAUAGGCCAUGGAAACUAGGAGCACCAUUUCGCUGCCAGUGAAGAAAUGAACAAAGAAAAGCUGGGCCAGGCAGGCAUCAAAAGAAAUAGUCUUGCGCUCAACCAGAAAGUCUGUAAUCAUUUUAAGGGUA the figure was 1.51. As to GUUAACGGUCAUAGGCCAUGGAGACUAGGAGCACCAUUUCGCUGCCAGUGAAGAAAUGAACAAAGAAAAUCUGGGCCAGGCAAGCAUCAAAAGAAAUAGUCUUGCGCUCAACCAGAAAGUCUGUAAUCAUUUUAAGGGUA, the self-cleavage stood at 1.24. With GUUAACGGUCAUAGGCCAUGGAAACUAGGAGCACCAGUUCGCUGCCAGUGAAGAAAUGAACAAAGAAAAUCUGGGCCAGGCAGGCAUCAAAAGAAGUAGUCUUGCGCUCAACCAGAAAGUCUGUAAUCAUUUUAAGGGUA the figure was 1.97; with GCUAACGGUCAUAGGCCAUGGAAACUAGGAGCACCAUUUCGCUGCCAGUGAAGAAAUGAACAAAGAAAAUCUGGGCCAGGCAGGCAUCAAAAGAAAUAGUCUUGCGCUCAACCAGAAAGUCUGUAAUCAUUUUAAAGGUA, 1.66. The result for GUUAACGGUCAUAGGCCAUGGAAACUAGGAGCACCAUUACGCUGCCAGUGAAGAAAUGAACAAAGAAAAUCUGGGCCAGGCAGGCAUCGAAAGAAAUAGUCUUGCGCUCAACCAGAAAGUCUGUAAUCAUUUUAAGGGUA reads 2.23; that for GUUAACGGUCAUAGGCCAUGGAAACUAGGAGCACCAUUUCGCUGCCAGUGAAGAAAUGAACAAAGAAAAUCUGGGCCAGGCAGGCAUCAAACGAAAUAGUAUUGCGCUCAACCAGAAAGUCUGUAAUCAUUUUAAGGGUA, 0.13. Turning to GUUAACGGUCGUAGGCCUUGGAAACUAGGAGCACCAUUUCGCUGCCAGUGAAGAAAUGAACAAAGAAAAUCUGGGCCAGGCAGGCAUCAAAAGAAAUAGUCUUGCGCUCAACCAGAAAGUCUGUAAUCAUUUUAAGGGUA, the self-cleavage stood at 0.46. With GUUAACGGUCAUAGGCCAUGGAAACUAGGAGCACCAUUUCGCUGCCAGUGAAGGAAUGAACAAAGAAAAUCUGGGCCAGGCCGGCAUCAAAAGAAAUAGUCUUGCGCUCAACCAGAAAGUCUGUAAUCAUUUUAAGGGUA the figure was 0.13; with GUUAACGGUCAUAGGCCAUGGAAACUUGGAGCACCAUUUCGCUGCCAGUGAAGAAAUGAACAAAGAAAAACUGGGCCAGGCAGGCAUCAAAAGAAAUAGUCUUGCGCUCAACCAGAAAGUCUGUAAUCAUUUUAAGGGUA, 1.68. With GUUAACGGUCAUAGGCCAUGGAAACUAGGAGCACCAUUUCGCUGCCAGUGAAGAAAUGAACAAAGAAAAUCUGGGCCAGGCAGGCAUCAAAAGAAAUAGUCUUGCGCUCAACCAGAAAGUCUGUAACCAUUUUAAGGGUG the figure was 0.73. Take GUUAACGGCCAUAGGCCAUGGAAACUAGGAGCACCAUUUCGCUGCCAGUGAAGAAAUGAACAAAGAAAAUCUGGGCCAGGCAGGCAUCAAAAGAAAUAGUCUUGCGCUCUACCAGAAAGUCUGUAAUCAUUUUAAGGGUA: the self-cleavage was 1.32. GUUAACGGUCAUAGGCCAUGGAAACUAAGAGCACCAUUUCGCUGCCAGUGAUGAAAUGAACAAAGAAAAUCUGGGCCAGGCAGGCAUCAAAAGAAAUAGUCUUGCGCUCAACCAGAAAGUCUGUAAUCAUUUUAAGGGUA: the self-cleavage stood at 1.15.

On to GUUAACGGUCAUAGGCCAUGGAAACUAGGAGCACCAUUUCGCUGCCAGUGAAGAAAUGAACAAAGAAAAUCGGGGCCAGGCAGGCAUCAAAAGAAAUAGUCUUGCGCUCAUCCAGAAAGUCUGUAAUCAUUUUAAGGGUA, for which the self-cleavage was 0.04.

Values taken from the RNAGym collection of RNA variant scans (doi:10.7554/elife.90254).
